Holding throughout (assay): peptide or protein array
In test [1] the target is T1, U1 small nuclear ribonucleoprotein C peptide (18-mer) (human).
T1 peptide: GAMIPPPPSLPGPPRPGM

The target in test [2] is T2, Tight junction protein ZO-2 peptide (18-mer) (human).
T2 peptide: FGRSILKPSTPIPPQEGE

Test [3] addresses T3, Serine-threonine protein kinase WNK1 peptide (18-mer) (human).
T3 peptide: NATALELPGLPLSLPQPS

Test [4] addresses T4, SET and MYND domain–containing protein 3 peptide (18-mer) (human).
T4 peptide: NGLRAVTPLRPGELLFRS

In test [5] the target is T5, Coiled-coil domain–containing protein KIAA1826 peptide (18-mer) (human).
T5 peptide: SRRENELPDFPHIDEFFT

Test [6] concerns the target T6, EGFR kinase substrate 8 peptide (18-mer) (human).
T6 peptide: PKEQFIPPYVPRFRNGWE

Test [7] deals with T7, UPF0027 protein C22orf28 peptide (18-mer) (human).
T7 peptide: GSTRAFPPHHPLIAVDYQ

Test [8] concerns the target T8, YLP motif–containing protein 1 peptide (18-mer) (human).
T8 peptide: HHLPPPPLPPPPVMPGGG

Test [9] deals with T9, Gephyrin peptide (18-mer) (human).
T9 peptide: FGRVFMKPGLPTTFATLD

The target of test [10] is T10, Glutamate–cysteine ligase catalytic peptide (18-mer) (human).
T10 peptide: WQTMRFKPPPPNSDIGWR

Test [11] has as its target T11, Dishevelled, dsh homolog 3 peptide (18-mer) (human).
T11 peptide: MAFPRPRPWGPQEPLRAA

Test [12] has as its target T12, Proline-rich protein 4 peptide (18-mer) (human).
T12 peptide: GHRQLSLPRFPSVSLQEA

The target of test [13] is T13, Statherin peptide (18-mer) (human).
T13 peptide: RFGYGYGPYQPVPEQPLY

For test [14], the target named is T14, Tyrosine protein kinase ABL1 peptide (18-mer) (human).
T14 peptide: KKKKKTAPTPPKRSSSFR

In test [15] the target is T15, Adenylyl cyclase–associated protein 1 peptide (18-mer) (human).
T15 peptide: PPPPPPCPPPPPVSTISC

In test [16] the target is T16, Diaphanous homolog 1 peptide (18-mer) (human).
T16 peptide: LPGGTAIPPPPPLPGSAR

The target in test [17] is T17, DAZ-associated protein 1 peptide (18-mer) (human).
T17 peptide: QFSFGYGPPPPPPDQFAP

The target of test [18] is T18, Splicing factor 1 peptide (18-mer) (human).
T18 peptide: GMPPFGMPPAPPPPPPQN

Test [19] addresses T19, Serine-threonine protein kinase N3 peptide (18-mer) (human).
T19 peptide: EMTPPPKPPRLYLPQEPT

Test [20] deals with T20, Focal adhesion kinase 1 peptide (18-mer) (human).
T20 peptide: DPAAPPKKPPRPGAPGHL

The target in test [21] is T21, NEDD9-interacting protein with calponin homology and LIM domains peptide (18-mer) (human).
T21 peptide: DPEMEPPPKPPRSCSALA

For test [22], the target named is T22, Ankyrin repeat and SAM domain–containing protein 1A peptide (18-mer) (human).
T22 peptide: DRPYEEPPQKPPRFSQLR

In test [23] the target is T23, Rab11 family interacting protein 5 peptide (18-mer) (human).
T23 peptide: RIMETSPTLLQIPPGPPK

The results in this text go back to publication PMC3553496 (Science signaling, 2011).

B1: GST-tagged ARHGAP12 SH3 domain (domain or fragment, human, UniProt Q8IWW6 15-73, looked up)
chain: VYIEVEYDYEYEAKDRKIVIKQGERYILVKKTNDDWWQVKPDENSKAFYVPAQYVKEVT
Take B1: the “relative binding strength (% of the strongest interaction of this SH3 domain)” value in test [1] stood at 100%; in test [2], 93%; in test [3] it was 52%.

B2: GST-tagged ARHGAP9 SH3 domain (domain or fragment, human, UniProt Q9BRR9 25-87, looked up)
chain: SQLCALYAFTYTGADGQQVSLAEGDRFLLLRKTNSDWWLARRLEAPSTSRPIFVPAAYMIEES
Take B2: the “relative binding strength (% of the strongest interaction of this SH3 domain)” value turned out to be 100% in test [4], 70% in test [5], 24% in test [6] and 13% in [7].

B3: GST-tagged SRGAP2 SH3 domain (domain or fragment)
chain: not shown
In the case of B3, the “relative binding strength (% of the strongest interaction of this SH3 domain)” value turned out to be 100% in test [8], 55% in test [9], 18% in test [10] and 9% in test [11].

B4: GST-tagged SNX26 SH3 domain (domain or fragment, human, UniProt O14559 189-247, looked up)
chain: AAAHVIKRYTAQAPDELSFEVGDIVSVIDMPPTEDRSWWRGKRGFQVGFFPSECVELFT
For B4, the “relative binding strength (% of the strongest interaction of this SH3 domain)” value was found to be 100% in test [12], 28% in test [13], 20% in test [14] and 10% in [15].

B5: GST-tagged ARHGAP4 SH3 domain (domain or fragment)
chain: not shown
Take B5: the results for the “relative binding strength (% of the strongest interaction of this SH3 domain)” value in test [16], in test [17] and in test [18] were 100%, 18% and 7%, respectively.

B6: GST-tagged ARHGAP26 SH3 domain (domain or fragment, human, UniProt Q9UNA1 759-814, looked up)
chain: RKAKALYACKAEHDSELSFTAGTVFDNVHPSQEPGWLEGTLNGKTGLIPENYVEFL
Take B6: the “relative binding strength (% of the strongest interaction of this SH3 domain)” value amounted to 100% in test [19]; 91% in test [20]; 64% in [21]; 27% in test [22]; 6% in test [23].
